No end group written: not given here. fluorescein = fluorescein label at the amino-terminal end; Flu = fluorescein
B1: Mutant angiotensin II fragment containing the first five amino acid residues of wildtype AII, labeled with fluorescein at its amino-terminus [Flu-AII(1-5)] (peptide)
peptide: Flu-DRVYI
notes: Synthesized by AnaSpec; also called mutant Flu-AII(1-5); mutant Flu-AII

Tests used:
[1] = molecular target: T1, human AT1 receptor (Homo sapiens, UniProt P30556); test: Flu-AII:AT1 fluorescent intensity quenching binding assay; settings: 0.005, 0.01, 0.02 and 0.05 units AT1 receptor, 10 nM probe
T1 construct: purchased NEN Life Science Products Inc., Boston, Mass; host or cells: Chinese hamster ovary (CHO) cells, purified membrane preparation
T1 sequence (P30556 1-359): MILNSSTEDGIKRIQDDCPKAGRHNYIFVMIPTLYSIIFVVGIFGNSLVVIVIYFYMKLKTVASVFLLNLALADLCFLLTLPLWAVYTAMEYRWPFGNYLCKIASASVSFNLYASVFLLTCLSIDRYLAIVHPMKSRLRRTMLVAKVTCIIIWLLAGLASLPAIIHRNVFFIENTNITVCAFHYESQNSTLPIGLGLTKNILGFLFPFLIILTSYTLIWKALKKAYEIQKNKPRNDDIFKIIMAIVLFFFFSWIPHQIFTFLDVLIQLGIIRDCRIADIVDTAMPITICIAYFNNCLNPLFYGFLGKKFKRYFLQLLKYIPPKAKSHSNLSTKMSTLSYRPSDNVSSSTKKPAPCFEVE

[2] = molecular target: T2, Cloned human angiotensin II AT1 receptor (purified membrane preparation derived from CHO cells) (human, UniProt P30556 1-359); test: fluorescence intensity quenching assay in solution
T2 construct: whole, on cells; Used as a membrane preparation, not intact cells; also called human AT1 receptor
T2 sequence (looked up): T1 sequence (P30556 1-359)

Molecule | binding to AT1 receptor (fluorescent intensity versus probe alone) [1] | binding result [2]
Flu-Asp-Arg-Val-Tyr-Ile (fluorescein-DRVYI) [Flu-AII(1-5)] | did not bind | –
B1 | – | no binding
